For the data set, the system named is fibrin (formed in the agarose plate from fibrinogen and thrombin).

Data on one substance can be found in patent publication US20160208274.

For the substance “recombinant Desmodus rotundus salivary plasminogen activator alpha2 (DSPAα2) from transgenic T1 tobacco seeds, with C-terminal 6xHis tag and KDEL”, the fibrin degradation entry is “recombinant proteins t-PA, DSPAα1 and DSPAα2 produced in this manner can degrade fibrin”.
